Here are results for 1 substance from patent publication CN116535503A.

Where only a bound is given, the exact number is not on record here.

The target in experiment [1] is GDF15-mFC蛋白(GDF15:Genbank登记号NM_004864.3;mFC:Genbank登记号AAH31470.1) (human; mouse) (UniProt Q99988). Briefly: competition ELISA: blocks GDF15-mFC binding to coated GFRAL-hFc.
In experiment [2] the target is GDF15-HIS(百普赛斯，CAT#:GD5-H5149) (human) (UniProt Q99988). Briefly: BLI (ForteBio Octet), antibody captured at 10 μg/ml, GDF15 6.25-200 nM.
GDF15-HIS(百普赛斯，CAT#:GD5-H5149) (human), sequence (Q99988 197-308 limits assumed): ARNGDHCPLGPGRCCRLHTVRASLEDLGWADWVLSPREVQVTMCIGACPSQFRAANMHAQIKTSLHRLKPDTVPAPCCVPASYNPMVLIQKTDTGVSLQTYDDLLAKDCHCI
Experiment [3] shares this target. Briefly: ELISA, GDF15-HIS coated.
The target is the same in experiment [4]. Briefly: cell-based or functional assay.

Consider “Ponsegromab(Pfizer;Drug Bank:D11909) (antibody)”, for which, in experiment [1], the IC50 came out at 0.504 µg/mL and the OD450.Max came out at 1.02 OD450. Besides, in experiment [2], the Kd is under 1 pM, the koff is under 1e-07 s⁻¹ and the on-rate (kon) turned out to be 711000 M⁻¹ s⁻¹. In experiment [3], this substance had a concentration giving a half-maximal response (EC50) of 0.096 µg/mL and an OD450.Max of 1.1 OD450. Besides, in experiment [4], the Bottom (fold luciferase activity), HEK293 SRE-LUC2-cRET-GFRAL reporter cells stood at 1.07 and the IC50(μg/ml), luciferase in HEK293 SRE-LUC2-cRET-GFRAL reporter cells stimulated with 5 ng/ml GDF15-His worked out at 0.0321 µg/mL.
